# Source: patent US9266939B2, “Compositions comprising natriuretic peptides and methods of use thereof” (Alexion Pharmaceuticals, Inc., priority 2010, dated 2016)
# Peptide text beside a SMILES is read from it.
# Tests used:
# [1] = target: neutral endopeptidase (NEP) (Homo sapiens, UniProt P08473)
# NPR-B [2] = target: T1, NPR-B (Homo sapiens, UniProt P20594); assay: Whole cell guanylyl cyclase (cGMP) assay, NPR-B; assay type: cell-based; set-up: expressed in transfected cells; details: for potency compared with CNP22: CNP22 position 17 point mutants, NPR-B whole cell cGMP assay (FIG. 30); for efficacy relative to CNP / potency relative to CNP (times less than that of CNP): NPR-B whole cell assay (FIG. 21C)
# T1 sequence (P20594 23-1047): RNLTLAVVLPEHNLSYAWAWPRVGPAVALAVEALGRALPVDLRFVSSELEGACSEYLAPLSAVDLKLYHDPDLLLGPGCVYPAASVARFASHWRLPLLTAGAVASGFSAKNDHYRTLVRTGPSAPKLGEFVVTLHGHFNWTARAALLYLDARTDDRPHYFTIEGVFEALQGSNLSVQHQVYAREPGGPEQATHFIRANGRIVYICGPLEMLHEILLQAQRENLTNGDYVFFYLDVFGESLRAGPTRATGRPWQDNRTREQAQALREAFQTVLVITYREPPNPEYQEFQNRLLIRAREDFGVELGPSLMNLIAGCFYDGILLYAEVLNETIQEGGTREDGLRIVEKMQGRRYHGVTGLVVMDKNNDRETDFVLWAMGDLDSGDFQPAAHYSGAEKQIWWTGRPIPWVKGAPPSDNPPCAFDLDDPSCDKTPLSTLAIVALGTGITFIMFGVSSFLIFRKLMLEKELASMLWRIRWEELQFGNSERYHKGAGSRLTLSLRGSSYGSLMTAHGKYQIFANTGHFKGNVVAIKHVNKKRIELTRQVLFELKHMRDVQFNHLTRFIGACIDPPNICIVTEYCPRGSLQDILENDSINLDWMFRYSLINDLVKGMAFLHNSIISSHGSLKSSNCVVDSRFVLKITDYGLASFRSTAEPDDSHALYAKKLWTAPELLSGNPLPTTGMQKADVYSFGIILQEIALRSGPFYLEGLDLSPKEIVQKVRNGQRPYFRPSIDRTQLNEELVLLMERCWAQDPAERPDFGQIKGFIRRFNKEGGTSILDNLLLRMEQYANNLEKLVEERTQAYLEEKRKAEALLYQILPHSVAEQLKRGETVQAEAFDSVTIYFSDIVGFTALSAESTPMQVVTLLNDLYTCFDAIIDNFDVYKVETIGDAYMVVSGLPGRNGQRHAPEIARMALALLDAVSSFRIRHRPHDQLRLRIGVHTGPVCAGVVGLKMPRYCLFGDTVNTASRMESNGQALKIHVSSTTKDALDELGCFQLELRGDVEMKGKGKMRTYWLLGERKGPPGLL
# Protocol: HEK293S cells in a semi-confluent 75 cm2 flask are transfected with 30 μg of plasmid DNA coding for the appropriate receptor, e.g., human NPR-B or NPR-A, using Lipofectamine-2000CD. Alternatively, a stable polyclonal HEK293 S cell line expressing either human NPR-B or NPR-A was used. 24 hours after transfection, cells are trypsinized and plated into 48-well plates at 1×10^5 cells/well. Guanylyl cyclase assay is carried out 24 hours post-plating. Cells are first incubated for 30 minutes at 37° C. with serum-free DMEM medium. Then, they are incubated in triplicate with or without increasing concentrations of reference or test proteins in serum-free DMEM supplemented with 1 mM IBMX and 0.5% BSA, at 37° C. for 30 minutes to one hour. CNP serves as a suitable reference for NPR-B, while ANP is a suitable reference for NPR-A. Finally, cells are washed with ice-cold PBS and solubilized in lysis buffer from Catchpoint cGMP kit (Molecular devices). Concentrations of cGMP in lysate are determined using the Catchpoint cGMP kit. Dose-response curves are analysed with GraphPad Prism 5 software using non-linear regression with four-parameter logistic equation.
# NPR-B [3] = target: T1, NPR-B; assay: Membrane guanylyl cyclase (cGMP) assay, NPR-B; assay type: biochemical
# [4] = first NPR-B membrane assay (FIG. 21A)
# [5] = second NPR-B membrane assay (FIG. 21B)
# Sequence of neutral endopeptidase (NEP) (P08473 whole entry): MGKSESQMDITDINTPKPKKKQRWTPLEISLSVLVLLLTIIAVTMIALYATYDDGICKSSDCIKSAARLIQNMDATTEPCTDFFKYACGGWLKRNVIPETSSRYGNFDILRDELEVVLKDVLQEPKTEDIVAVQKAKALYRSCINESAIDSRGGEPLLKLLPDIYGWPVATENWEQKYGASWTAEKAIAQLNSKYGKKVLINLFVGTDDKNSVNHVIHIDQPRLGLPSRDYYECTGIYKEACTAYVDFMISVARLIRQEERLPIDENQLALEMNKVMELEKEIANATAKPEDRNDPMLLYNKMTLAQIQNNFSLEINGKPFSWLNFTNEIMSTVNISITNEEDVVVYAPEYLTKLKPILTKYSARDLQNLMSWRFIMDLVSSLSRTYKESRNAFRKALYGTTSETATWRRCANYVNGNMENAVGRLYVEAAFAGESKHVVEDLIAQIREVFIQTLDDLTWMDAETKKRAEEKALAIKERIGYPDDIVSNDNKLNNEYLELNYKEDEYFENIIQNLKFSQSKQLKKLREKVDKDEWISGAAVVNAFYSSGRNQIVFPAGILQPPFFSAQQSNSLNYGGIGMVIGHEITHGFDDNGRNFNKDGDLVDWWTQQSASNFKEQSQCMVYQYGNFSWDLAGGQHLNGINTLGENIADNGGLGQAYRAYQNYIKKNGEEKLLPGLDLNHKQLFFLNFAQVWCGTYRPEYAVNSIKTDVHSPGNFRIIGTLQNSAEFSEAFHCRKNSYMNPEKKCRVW
molecule,measurement,setting,value
"CC[C@H](C)[C@@H]1NC(=O)[C@H](CCCNC(=N)N)NC(=O)[C@H](CC(=O)O)NC(=O)[C@H](CC(C)C)NC(=O)[C@H](CCCCN)NC(=O)[C@H](CC(C)C)NC(=O)CNC(=O)[C@H](Cc2ccccc2)NC(=O)[C@@H](NC(=O)CNC(=O)[C@H](CCCCN)NC(=O)[C@H](CO)NC(=O)[C@H](CC(C)C)NC(=O)CN)CSSC[C@@H](C(=O)NCC(=O)N[C@@H](CO)C(=O)N[C@@H](CC(C)C)C(=O)N[C@@H](CCCNC(=N)N)C(=O)N[C@@H](CC(=O)O)C(=O)N2CCC[C@H]2C(=O)N[C@@H](CCCNC(=N)N)C(=O)N2CCC[C@H]2C(=O)N[C@@H](CC(N)=O)C(=O)N[C@@H](C)C(=O)N2CCC[C@H]2C(=O)N[C@@H](CO)C(=O)N[C@H](C(=O)N[C@@H](CO)C(=O)N[C@@H](C)C(=O)O)[C@@H](C)O)NC(=O)CNC(=O)[C@H](CC(C)C)NC(=O)CNC(=O)[C@H](CO)NC(=O)[C@H](CCSC)NC(=O)[C@H](CO)NC(=O)CNC1=O [CDNP-G1] (HELM PEPTIDE1{G.L.S.K.G.C.F.G.L.K.L.D.R.I.G.S.M.S.G.L.G.C.G.S.L.R.D.P.R.P.N.A.P.S.T.S.A}$PEPTIDE1,PEPTIDE1,6:R3-22:R3$$$V2.0)",sensitivity to NEP degradation,[1],comparable NEP sensitivity
"CC[C@H](C)[C@@H]1NC(=O)[C@H](CCCNC(=N)N)NC(=O)[C@H](CC(=O)O)NC(=O)[C@H](CC(C)C)NC(=O)[C@H](CCCCN)NC(=O)[C@H](CC(C)C)NC(=O)CNC(=O)[C@H](Cc2ccccc2)NC(=O)[C@@H](NC(=O)CNC(=O)[C@H](CCCCN)NC(=O)[C@H](CO)NC(=O)[C@H](CC(C)C)NC(=O)CN)CSSC[C@@H](C(=O)N[C@@H](Cc2c[nH]cn2)C(=O)N[C@@H](CO)C(=O)N[C@@H](CC(C)C)C(=O)N[C@@H](CCCNC(=N)N)C(=O)N[C@@H](CC(=O)O)C(=O)N2CCC[C@H]2C(=O)N[C@@H](CCCNC(=N)N)C(=O)N2CCC[C@H]2C(=O)N[C@@H](CC(N)=O)C(=O)N[C@@H](C)C(=O)N2CCC[C@H]2C(=O)N[C@@H](CO)C(=O)N[C@H](C(=O)N[C@@H](CO)C(=O)N[C@@H](C)C(=O)O)[C@@H](C)O)NC(=O)CNC(=O)[C@H](CC(C)C)NC(=O)CNC(=O)[C@H](CO)NC(=O)[C@H](CCSC)NC(=O)[C@H](CO)NC(=O)CNC1=O [CDNP-H1] (HELM PEPTIDE1{G.L.S.K.G.C.F.G.L.K.L.D.R.I.G.S.M.S.G.L.G.C.H.S.L.R.D.P.R.P.N.A.P.S.T.S.A}$PEPTIDE1,PEPTIDE1,6:R3-22:R3$$$V2.0)",sensitivity to NEP degradation,[1],comparable NEP sensitivity
"CC[C@H](C)[C@@H]1NC(=O)[C@H](CCCNC(=N)N)NC(=O)[C@H](CC(=O)O)NC(=O)[C@H](CC(C)C)NC(=O)[C@H](CCCCN)NC(=O)[C@H](CC(C)C)NC(=O)CNC(=O)[C@H](Cc2ccccc2)NC(=O)[C@@H](NC(=O)CNC(=O)[C@H](CCCCN)NC(=O)[C@H](CO)NC(=O)[C@H](CC(C)C)NC(=O)CN)CSSC[C@@H](C(=O)N[C@@H](CCCCN)C(=O)N[C@@H](CO)C(=O)N[C@@H](CC(C)C)C(=O)N[C@@H](CCCNC(=N)N)C(=O)N[C@@H](CC(=O)O)C(=O)N2CCC[C@H]2C(=O)N[C@@H](CCCNC(=N)N)C(=O)N2CCC[C@H]2C(=O)N[C@@H](CC(N)=O)C(=O)N[C@@H](C)C(=O)N2CCC[C@H]2C(=O)N[C@@H](CO)C(=O)N[C@H](C(=O)N[C@@H](CO)C(=O)N[C@@H](C)C(=O)O)[C@@H](C)O)NC(=O)CNC(=O)[C@H](CC(C)C)NC(=O)CNC(=O)[C@H](CO)NC(=O)[C@H](CCSC)NC(=O)[C@H](CO)NC(=O)CNC1=O [CDNP-K1] (HELM PEPTIDE1{G.L.S.K.G.C.F.G.L.K.L.D.R.I.G.S.M.S.G.L.G.C.K.S.L.R.D.P.R.P.N.A.P.S.T.S.A}$PEPTIDE1,PEPTIDE1,6:R3-22:R3$$$V2.0)",sensitivity to NEP degradation,[1],slightly more sensitive to NEP than the other CDNP variants
"CC[C@H](C)[C@@H]1NC(=O)[C@H](CCCNC(=N)N)NC(=O)[C@H](CC(=O)O)NC(=O)[C@H](CC(C)C)NC(=O)[C@H](CCCCN)NC(=O)[C@H](CC(C)C)NC(=O)CNC(=O)[C@H](Cc2ccccc2)NC(=O)[C@@H](NC(=O)CNC(=O)[C@H](CCCCN)NC(=O)[C@H](CO)NC(=O)[C@H](CC(C)C)NC(=O)CN)CSSC[C@@H](C(=O)N[C@@H](CC(N)=O)C(=O)N[C@@H](CO)C(=O)N[C@@H](CC(C)C)C(=O)N[C@@H](CCCNC(=N)N)C(=O)N[C@@H](CC(=O)O)C(=O)N2CCC[C@H]2C(=O)N[C@@H](CCCNC(=N)N)C(=O)N2CCC[C@H]2C(=O)N[C@@H](CC(N)=O)C(=O)N[C@@H](C)C(=O)N2CCC[C@H]2C(=O)N[C@@H](CO)C(=O)N[C@H](C(=O)N[C@@H](CO)C(=O)N[C@@H](C)C(=O)O)[C@@H](C)O)NC(=O)CNC(=O)[C@H](CC(C)C)NC(=O)CNC(=O)[C@H](CO)NC(=O)[C@H](CCSC)NC(=O)[C@H](CO)NC(=O)CNC1=O [CDNP-N1] (HELM PEPTIDE1{G.L.S.K.G.C.F.G.L.K.L.D.R.I.G.S.M.S.G.L.G.C.N.S.L.R.D.P.R.P.N.A.P.S.T.S.A}$PEPTIDE1,PEPTIDE1,6:R3-22:R3$$$V2.0)",sensitivity to NEP degradation,[1],comparable NEP sensitivity
CNP-F17: CNP22 point mutant at position 17; SEQ ID NO: 119 (GLSKGCFGLKLDRIGSFSGLGC; Synthetic Construct (CNP-F17 (C15))),potency compared with CNP22,NPR-B [2],comparable potency to CNP22
CNP-L17: CNP22 point mutant at position 17; SEQ ID NO: 120 (GLSKGCFGLKLDRIGSLSGLGC; Synthetic Construct (CNP-L17 (C16))),potency compared with CNP22,NPR-B [2],comparable potency to CNP22
CNP-R17: CNP22 point mutant at position 17; SEQ ID NO: 157 (GLSKGCFGLKLDRIGSRSGLGC; Synthetic Construct (CNP-R17)),potency compared with CNP22,NPR-B [2],improved potency
CNP-T17: CNP22 point mutant at position 17; SEQ ID NO: 122 (GLSKGCFGLKLDRIGSTSGLGC; Synthetic Construct (CNP-T17 (C18))),potency compared with CNP22,NPR-B [2],comparable potency to CNP22
CNP-Y17: CNP22 point mutant at position 17; SEQ ID NO: 158 (GLSKGCFGLKLDRIGSYSGLGC; Synthetic Construct (CNP-Y17)),potency compared with CNP22,NPR-B [2],improved potency
"Fc-CNP53-A: N-terminal Fc, Gly3 linker, CNP53 with position 48 mutated to alanine; SEQ ID NO: 518",efficacy relative to CNP,NPR-B [3]; [4],slightly better efficacy than CNP
same,potency relative to CNP (times less than that of CNP),NPR-B [3]; [4],more than twice the potency as CNP
same,efficacy relative to CNP,NPR-B [3]; [5],comparable efficacy
same,potency relative to CNP (times less than that of CNP),NPR-B [3]; [5],1.3 times
same,efficacy relative to CNP,NPR-B [2],comparable efficacy
same,potency relative to CNP (times less than that of CNP),NPR-B [2],5.4 times
Fc-CNP53-AAA: Fc-CNP53-A with residues 30 and 31 of CNP53 mutated to alanine; SEQ ID NO: 520,efficacy relative to CNP,NPR-B [3]; [4],about two-thirds of CNP's efficacy
same,potency relative to CNP (times less than that of CNP),NPR-B [3]; [4],1.5 times
same,efficacy relative to CNP,NPR-B [3]; [5],comparable efficacy
same,potency relative to CNP (times less than that of CNP),NPR-B [3]; [5],3.3 times
same,efficacy relative to CNP,NPR-B [2],74%
same,potency relative to CNP (times less than that of CNP),NPR-B [2],14 times
